In the assay the target is albumin. Put plainly: albumin binding constant (K), same method as the earlier dye-albumin study; method not described.

“LS838: Cypate-Cyclo(DCys-Gly-Arg-Asp-Ser-Pro-Cys)-Tyr-OH (peptide)” registered a Ka of 86000 M⁻¹.

Values taken from patent publication US20180289842A1.
